Experimental data from US20260242478A1 (published 2026).

B1: Phage-336 clonal phage peptide MDWCPRDLWNWCFN (peptide)
peptide: MDWCPRDLWNWCFN
B2: Phage-322 (peptide)
peptide: MDWCPRHLWIECFN
notes: Clonal phage of the Peptide-9 library
B3: Phage-332 (peptide)
peptide: IDWCPRALWDACLA
notes: as for B2
B4: Phage-329 (peptide)
peptide: MDWCPRALWNVCFA
notes: Clonal phage of the Peptide-9 library; also called the position column gives N at position 14)
B5: Phage-321 (peptide)
peptide: MDWCPRDLWYVCFA
notes: as for B2
B6: Phage-311 (peptide)
peptide: MDWCPRDLWYQCFN
notes: as for B2
B7: Phage-325 (peptide)
peptide: MDWCPAYLWDECFA
notes: as for B2
B8: Phage-320 (peptide)
peptide: MDWCPTYLWNECFN
notes: as for B2
B9: Phage-323 (peptide)
peptide: MDWCPTYLWNVCFA
notes: as for B2
B10: Phage-327 (peptide)
peptide: MHWCPRDLWHVCFN
notes: as for B2
B11: Phage-328 (peptide)
peptide: MDWCPRALWDHCFN
notes: as for B2
B12: Phage-317 (peptide)
peptide: MDWCPRHLWHECFT
notes: as for B2
B13: Phage-314 (peptide)
peptide: MDWCPIHLWNECFN
notes: as for B2
B14: Phage-324 (peptide)
peptide: MDWCPRHLWYECFS
notes: as for B2
B15: Phage-330 (peptide)
peptide: MDWCPRFLWDVCFN
notes: Clonal phage of the Peptide-9 library; also called the position column gives F at position 7)
B16: Phage-315 (peptide)
peptide: MDWCPTYLWHVCFS
notes: as for B2
B17: Phage-310 (peptide)
peptide: MDWCPRDLWDECFN
notes: as for B2
B18: Phage-333 (peptide)
peptide: MDWCPTDLWHECFA
notes: as for B2
B19: Phage-326 (peptide)
peptide: MFWCPITLWNECFN
notes: as for B2
B20: Phage-319 (peptide)
peptide: MSWCPRDLWHLCFF
notes: as for B2
B21: Phage-313 (peptide)
peptide: MDWCPRSLWNYCFN
notes: as for B2
B22: Phage-316 (peptide)
peptide: MDWCPRSLWNYCFA
notes: as for B2
B23: Phage-318 (peptide)
peptide: MDWCPMFLWDECFN
notes: as for B15
B24: Phage-331 (peptide)
peptide: MDWCPRHLWDECFY
notes: as for B2
B25: Phage-334 (peptide)
peptide: MDWCPRYLWDECFS
notes: as for B2
B26: Phage-335 (peptide)
peptide: MDWCPRFLWDYCFA
notes: as for B2
B27: Phage-213 (peptide)
peptide: MNWCPSYMWDQCFA
notes: tested as crude clonal phage supernatant
B28: Phage-210 (peptide)
peptide: MDWCPRDMWFECFA
notes: as for B27
B29: Phage-212 (peptide)
peptide: MDWCPRAMWDKCFF
notes: as for B27
B30: Phage-205 (peptide)
peptide: MDWCPTDMWHHCFL
notes: as for B27
B31: Phage-222 (peptide)
peptide: MDWCPRDQWHNCFN
notes: as for B27
B32: Phage-215 (peptide)
peptide: MDWCPRYMWNECFN
notes: as for B27
B33: Phage-220 (peptide)
peptide: FDFCPTTMWTYCQH
notes: as for B27
B34: Phage-204 (peptide)
peptide: MDWCPRHMWNVCFS
notes: as for B27
B35: Phage-216 (peptide)
peptide: MDWCPMNMWYQCFN
notes: as for B27
B36: Phage-214 (peptide)
peptide: MDWCPTYMWSECFN
notes: as for B27
B37: Phage-217 (peptide)
peptide: MDWCPWDMWDKCFN
notes: as for B27
B38: Phage-208 (peptide)
peptide: MDWCPTDMWIVCFA
notes: as for B27
B39: Phage-203 (peptide)
peptide: MSWCPRDMWFYCYA
notes: as for B27
B40: Phage-207 (peptide)
peptide: MDWCPRAMWHECFY
notes: as for B27
B41: Phage-221 (peptide)
peptide: TTWCPTSMWLHCFD
notes: as for B27
B42: Phage-218 (peptide)
peptide: TFGCPTTMWNRCFA
notes: as for B27
B43: Phage-209 (peptide)
peptide: IDWCPQDMWFYCFN
notes: as for B27
B44: Phage-219 (peptide)
peptide: NYWCPSSMWNRCLH
notes: as for B27
B45: Phage-206 (peptide)
peptide: IHWCPINMWDKCYN
notes: as for B27

Target: T1, anti-CD28 scFv (VH - linker 1 - VL) (biotinylated (site not stated))
Experiment: phage ELISA as above; wells pre-incubated with soluble CD28 (competitor)
T1 sequence (scFv, as listed by the source): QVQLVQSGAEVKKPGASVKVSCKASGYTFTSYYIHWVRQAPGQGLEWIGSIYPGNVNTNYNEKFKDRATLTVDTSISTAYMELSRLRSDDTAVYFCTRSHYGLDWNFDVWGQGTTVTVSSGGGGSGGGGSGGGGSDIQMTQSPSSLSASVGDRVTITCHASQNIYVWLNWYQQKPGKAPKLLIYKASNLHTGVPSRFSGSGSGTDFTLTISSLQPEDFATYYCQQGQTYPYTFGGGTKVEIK

B1 was tested, and the “CD28 scFv signal in presence of CD28” value was 0.39.

Target: T2, Anti-CD28 scFv (VH - linker 1 - VL) (biotinylated (site not stated))
T2 construct: Biotinylated anti-CD28 scFv captured on neutravidin coated plates in the panning ELISA
Experiment: phage ELISA as above; wells pre-incubated with soluble CD28 as competitor;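 further: crude clonal phage supernatants tested, with bound phage detected by HRP-conjugated anti-M13 antibody, and reference wells given blocking buffer without CD28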

T2 sequence (scFv, as listed by the source): as above

In order of falling “CD28 scFv signal in presence of CD28” value:
1. B6  0.609
2. B8  0.606
3. B2  0.376
4. B12  0.32
5. B20  0.319
6. B15  0.309
7. B11  0.293
8. B4  0.249
9. B17  0.248
10. B21  0.209
11. B26  0.207
12. B23  0.203
13. B22  0.198
14. B3  0.164
15. B25  0.164
16. B7  0.163
17. B14  0.163
18. B16  0.16
19. B13  0.157
20. B18  0.154
21. B10  0.15
22. B24  0.146
23. B19  0.143
24. B5  0.138
25. B9  0.132

Target: T3, anti-CD28 scFv (VH - linker 1 - VL) (biotinylated (site not stated))
T3 construct: Captured as biotinylated scFv on neutravidin coated plates in the clonal phage ELISA
Experiment: clonal phage ELISA; biotinylated anti-CD28 scFv on neutravidin plate, anti-M13-HRP detection;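 further: crude supernatants of phage clones were tested in wells pretreated with blocking buffer either alone or supplemented with soluble CD28 protein before phage addition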
T3 sequence (scFv, as listed by the source): as above

In order of falling “CD28 scFv signal” value:
1. B34  2.25
2. B39  2.25
3. B30  2.2
4. B45  2.08
5. B40  1.92
6. B38  1.5
7. B43  1.42
8. B28  1.31
9. B29  0.985
10. B27  0.854
11. B36  0.754
12. B32  0.687
13. B35  0.639
14. B37  0.586
15. B31  0.2
16. B42  0.181
17. B44  0.158
18. B33  0.086
19. B41  0.074

Target: T1, anti-CD28 scFv (VH - linker 1 - VL)
Experiment: phage ELISA; biotinylated anti-CD28 scFv on neutravidin plate, clonal phage supernatant, anti-M13-HRP;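 further: before the phage were added, wells were pre-incubated with soluble CD28 protein in blocking buffer, or with blocking buffer alone, and were not washed in between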

With B1 the “CD28 scFv signal” value was 2.03.

Target: T2, Anti-CD28 scFv (VH - linker 1 - VL)
Experiment: as above

In order of rising “CD28 scFv signal” value:
1. B26  2.03
2. B25  2.06
3. B18  2.07
4. B3  2.1
5. B24  2.13
6. B4  2.14
7. B15  2.14
8. B10  2.15
9. B11  2.15
10. B19  2.15
11. B7  2.17
12. B14  2.17
13. B2  2.21
14. B9  2.21
15. B5  2.22
16. B8  2.24
17. B20  2.27
18. B23  2.29
19. B12  2.3
20. B16  2.32
21. B22  2.32
22. B6  2.35
23. B13  2.35
24. B21  2.35
25. B17  2.37

Target: T3, anti-CD28 scFv (VH - linker 1 - VL)
Experiment: clonal phage ELISA; captured anti-CD28 scFv pre-incubated with soluble CD28 (competitor), anti-M13-HRP detection;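 further: crude clonal phage supernatants added to wells pretreated with soluble CD28 in blocking buffer, compared against wells given blocking buffer only, then bound phage measured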
Procedure: Clonal phage were harvested as crude supernatants and screened via standard enzyme linked immunosorbent assays (ELISAs). […] Prior to the addition of clonal phage, wells were incubated with blocking buffer and CD28 soluble protein or blocking buffer alone. Without washing or aspirating, clonal phage supernatants were then added to the wells and incubated for a short time. Wells were then washed followed by detection of bound phage using a horse radish peroxidase conjugated anti-M13 antibody.

In order of rising “CD28 scFv signal in presence of CD28” value:
1. B42  0.068
2. B41  0.072
3. B31  0.078
4. B33  0.081
5. B44  0.088
6. B29  0.094
7. B27  0.105
8. B36  0.107
9. B37  0.108
10. B30  0.126
11. B32  0.128
12. B40  0.129
13. B34  0.13
14. B35  0.137
15. B28  0.143
16. B43  0.16
17. B38  0.172
18. B39  0.174
19. B45  0.203
